Substitutions are numbered along the chain they refer to. Numbers in names are those of the source.
T1: FcγRIIb (human, UniProt P31994 43-217, limits assumed)
T1 construct: SPR analyte; also called FcγIIB; CD32
T1 sequence: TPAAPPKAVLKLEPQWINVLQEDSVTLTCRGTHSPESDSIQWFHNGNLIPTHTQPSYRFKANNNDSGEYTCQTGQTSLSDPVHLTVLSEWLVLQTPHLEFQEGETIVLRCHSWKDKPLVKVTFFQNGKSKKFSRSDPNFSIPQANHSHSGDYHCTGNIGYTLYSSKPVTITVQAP

T2: FcγRIIa type R (human, UniProt P12318 36-217)
T2 construct: SPR analyte; also called FcγRIIaR; FcγRIIa(R)
T2 chain: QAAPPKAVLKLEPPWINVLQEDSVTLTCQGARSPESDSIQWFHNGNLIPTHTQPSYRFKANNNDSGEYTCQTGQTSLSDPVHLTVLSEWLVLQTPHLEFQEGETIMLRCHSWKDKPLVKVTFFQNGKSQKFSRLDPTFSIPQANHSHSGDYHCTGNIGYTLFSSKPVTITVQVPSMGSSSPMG

T3: FcγRIIa type H (human, UniProt P12318 36-217)
T3 construct: SPR analyte; also called FcγRIIaH
T3 sequence: T2 chain with R133H

T4: human FcγRIIa(R) (human, UniProt P12318 36-217)
T4 construct: also called hFcgRIIa(R); FcγRIIa type R
T4 chain: T2 chain

T5: human FcγRIIa(H) (human, UniProt P12318 36-217)
T5 construct: also called hFcgRIIa(H); FcγRIIa type H
T5 sequence: T2 chain with R133H

T6: human FcγRIIb (human, UniProt P31994 43-217, limits assumed)
T6 construct: also called hFcgRIIb; FcγIIB
T6 sequence: T1 sequence

T7: human FcγRIIa type R (human, UniProt P12318 36-217)
T7 construct: also called FcγRIIaR; FcγRIIa(R)
T7 chain: T2 chain

T8: human FcγRIIb (human, UniProt P31994 43-217, limits assumed)
T8 construct: also called FcγIIB
T8 sequence: T1 sequence

B1: IL6R-BP150/IL6R-L (antibody, human IgG1)
heavy: QVQLQESGPGLVKPSETLSLTCAVSGHSISHDHAWSWVRQPPGEGLEWIGFISYSGITNYNPSLQGRVTISRDNSKNTLYLQMNSLRAEDTAVYYCARSLARTTAMDYWGEGTLVTVSSASTKGPSVFPLAPSSKSTSGGTAALGCLVKDYFPEPVTVSWNSGALTSGVHTFPAVLQSSGLYSLSSVVTVPSSSLGTQTYICNVNHKPSNTKVDKKVEPKSCDKTHTCPPCPAPEYLGDDSVFLFPPKPKDTLMISRTPEVTCVVVDVSHEDPEVKFNWYVDGVEVHNAKTKPREEQYNSTYRVVSVLTVLHQDWLNGKEYKCKVSNAALPRPIEKTISKAKGQPREPQVYTLPPSRDELTKNQVSLTCLVKGFYPSDIAVEWESNGQPENNYKTTPPVLDSDGSFFLYSKLTVDKSRWQQGNVFSCSVMHEALHNHYTQESLSLSP
light: DIQMTQSPSSLSASVGDRVTITCRASQDISSYLNWYQQKPGKAPKLLIYYTSRLHSGVPSRFSGSGSGTDFTFTISSLQPEDIATYYCQQGNTLPYTFGQGTKVEIK
B2: IL6R-BP177/IL6R-L (antibody, human IgG1)
heavy: B1 heavy with E235D, P273G, A328D, R332K
light: B1 light
B3: IL6R-BP151/IL6R-L (antibody, human IgG1)
heavy: B1 heavy with E235D
light: B1 light
B4: antibody with VH3-IgG1-F938 heavy chain and L(WT)-CK light chain (antibody)
heavy: QVQLQESGPGLVKPSETLSLTCAVSGHSISHDHAWSWVRQPPGEGLEWIGFISYSGITNYNPSLQGRVTISRDNSKNTLYLQMNSLRAEDTAVYYCARSLARTTAMDYWGEGTLVTVSSASTKGPSVFPLAPSSKSTSGGTAALGCLVKDYFPEPVTVSWNSGALTSGVHTFPAVLQSSGLYSLSSVVTVPSSSLGTQTYICNVNHKPSNTKVDKKVEPKSCDKTHTCPPCPAPELKGGPKVFLFPPKPKDTLYISRTPEVTCVVVDVSHEDPEVKFNWYVDGVEVHNAKTKPREEQYNSTYRVVSVLTVLHQDWLNGKEYKCKVSNKALPAPIEKTISKAKGQPREPQVYTLPPSRDELTKNQVSLTCLVKGFYPSDIAVEWESNGQPENNYKTTPPVLDSDGSFFLYSKLTVDKSRWQQGNVFSCSVMHEALHYHVTQKSLSLSP
light: not shown
notes: L235K/S239K on VH3-IgG1-F890; copies: 2 + 2
B5: IL6R-BP082/IL6R-L (antibody, human IgG1)
heavy: B1 heavy with E235D, Y236L, D239G, A328K, R332K
light: B1 light
B6: IL6R-PD080/IL6R-L (antibody)
chain 1: B4 heavy with K237L, G239D, P240D, K241S, V438Y
chain 2: not shown
B7: antibody with VH3-IgG1-F1333 heavy chain and L(WT)-CK light chain (antibody)
heavy: B4 heavy with K237R, G238R
light: not shown
notes: L235R/G236R/S239K on VH3-IgG1-F890; copies: 2 + 2
B8: antibody with VH3-IgG1-F1317 heavy chain and L(WT)-CK light chain (antibody)
heavy: B4 heavy with K237L, P331K
light: not shown
notes: S239K/P329K on VH3-IgG1-F890; copies: 2 + 2
B9: antibody with VH3-IgG1-F1315 heavy chain and L(WT)-CK light chain (antibody)
heavy: B4 heavy with K237L, G239K
light: not shown
notes: G237K/S239K on VH3-IgG1-F890; copies: 2 + 2
B10: IL6R-F652/IL6R-L (antibody, human IgG1)
heavy: B4 heavy with K237L, P240D, K241S, V438Y
light: B1 light
notes: IL6R-F11 with P238D (EU numbering)
B11: antibody with VH3-IgG1-F1356 heavy chain and L(WT)-CK light chain (antibody)
heavy: B4 heavy with K237L, G238R, K241S, L330R
light: not shown
notes: G236R/L328R on VH3-IgG1-F890; copies: 2 + 2
B12: antibody with VH3-IgG1-F1318 heavy chain and L(WT)-CK light chain (antibody)
heavy: B4 heavy with K237L, P331R
light: not shown
notes: S239K/P329R on VH3-IgG1-F890; copies: 2 + 2
B13: antibody with VH3-IgG1-F1316 heavy chain and L(WT)-CK light chain (antibody)
heavy: B4 heavy with K237L, G239R
light: not shown
notes: G237R/S239K on VH3-IgG1-F890; copies: 2 + 2
B14: antibody with VH3-IgG1-F1325 heavy chain and L(WT)-CK light chain (antibody)
heavy: B4 heavy with L236A, K237A, K241S, N299A
light: not shown
notes: L234A/L235A/N297A on VH3-IgG1-F890; copies: 2 + 2

Legend:
[1] = molecular target: T1, FcγRIIb; test: ratio of SPR KDs: KD for FcγRIIaR over KD for FcγRIIb
Text: (§1) Furthermore, KD(IIaR)/KD(IIb) and KD(IIaH)/KD(IIb) in the table respectively represent the value obtained by dividing the KD value of each variant for FcγRIIaR by the KD value of each variant for FcγRIIb, and the value obtained by dividing the KD value of each variant for FcγRIIaH by the KD value of each variant for FcγRIIb.

[2] = molecular target: T2, FcγRIIa type R; test: ratio of SPR KDs; stronger receptor here FcγRIIaR; reference IL6R-B3/IL6R-L (FcγRIIaH)
Text: (§2) Furthermore, KD(IIaR)/KD(IIb) and KD(IIaH)/KD(IIb) in the table respectively represent the value obtained by dividing the KD value of each variant for FcγRIIaR by the KD value of each variant for FcγRIIb, and the value obtained by dividing the KD value of each variant for FcγRIIaH by the KD value of each variant for FcγRIIb. KD(IIb) of the parent polypeptide/KD(IIb) of the altered polypeptide refers to the value obtained by dividing the KD value of the parent polypeptide for FcγRIIb by the KD value of each variant for FcγRIIb.

[3] = molecular target: T1, FcγRIIb; test: ratio of SPR KDs: KD for FcγRIIaH over KD for FcγRIIb
Text: as §1

[4] = molecular target: T1, FcγRIIb; test: ratio of SPR KDs; reference IL6R-B3/IL6R-L
Text: as §2

[5] = molecular target: T9, FcγRIa (human, UniProt P12314 16-292, limits assumed); test: SPR (Biacore), antibody captured, FcγR analyte
T9 construct: SPR analyte; also called CD64
Text: as §2

[6] = molecular target: T1, FcγRIIb; test: SPR (Biacore), antibody captured, FcγR analyte
Text: as §2

[7] = molecular target: T10, FcγRIIIa type V (human, UniProt P08637 17-208, limits assumed); test: SPR (Biacore), antibody captured, FcγR analyte
T10 construct: SPR analyte; allotype V158 was used here; also called FcγRIIIaV; FcγRIIIa(V)
Text: as §2

[8] = molecular target: T2, FcγRIIa type R; test: SPR (Biacore), antibody captured, FcγR analyte
Text: as §2

[9] = molecular target: T3, FcγRIIa type H; test: SPR (Biacore), antibody captured, FcγR analyte
Text: as §2

[10] = molecular target: T4, human FcγRIIa(R); test: SPR, antibody captured by Protein L, human FcγR as analyte, pH 7.4, 25 C;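 note: biacore T100 or T200 with Protein L amine-coupled on a CM4 chip, FcγRs diluted in ACES saline with polysorbate 20, buffer-only injection as blank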
Experimental: (§3) Binding activity between the antibodies and human FcγRIa, FcγRIIa(H), FcγRIIa(R), FcγRIIb and FcγRIIIa(F) (hereinafter referred to as human FcγRs) was evaluated using the BIACORE™ T100 or T200 surface plasmon resonance system (GE Healthcare). The antibodies being tested were captured by Protein L (ACTIGEN® protein (Alltech)) that was immobilized in suitable amounts on the CM4 Sensor Chip (GE Healthcare) by amine coupling. Next, the diluted human FcγRs and a running buffer used as a blank were injected to allow interaction with the antibodies captured on the sensor chip. A buffer consisting of 20 mmol/L N-(2-acetamido)-2-aminoethanesulfonic acid (ACES), 150 mmol/L NaCl and 0.05% (w/v) polysorbate 20 (Tween 20®) (pH 7.4) was used for the running buffer, and this buffer was also used to dilute the human FcγRs. 10 mmol/L glycine-HCl (pH 1.5) was used to regenerate the sensor chip. All measurements were carried out at 25° C.

[11] = molecular target: T5, human FcγRIIa(H); test: as above
Experimental: as §3

[12] = molecular target: T11, human FcγRIa (human, UniProt P12314 16-292, limits assumed); test: as above
T11 construct: also called hFcgRIa; hFcgRI
Experimental: as §3

[13] = molecular target: T12, human FcγRIIIa(V) (human, UniProt P08637 17-208, limits assumed); test: as above
T12 construct: also called hFcgRIIIa(V); allotype V158
Experimental: as §3

[14] = molecular target: T6, human FcγRIIb; test: as above
Experimental: as §3

[15] = molecular target: T7, human FcγRIIa type R; test: SPR (Biacore), antibody captured, FcγR as analyte
[16] = molecular target: T7, human FcγRIIa type R; test: SPR (Biacore), binding amount relative to IL6R-F652/IL6R-L = 100
[17] = molecular target: T8, human FcγRIIb; test: as above

T9 sequence (P12314 16-292 limits assumed): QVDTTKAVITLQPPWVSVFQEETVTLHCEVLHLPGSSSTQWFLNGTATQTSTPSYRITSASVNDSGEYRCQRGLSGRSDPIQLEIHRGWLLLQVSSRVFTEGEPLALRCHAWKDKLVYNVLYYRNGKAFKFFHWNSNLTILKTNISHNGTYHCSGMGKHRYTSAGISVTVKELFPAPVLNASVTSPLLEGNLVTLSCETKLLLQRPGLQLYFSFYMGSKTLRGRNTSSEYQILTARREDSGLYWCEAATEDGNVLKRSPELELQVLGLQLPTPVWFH
T11 sequence (P12314 16-292 limits assumed): as above
T10 sequence (P08637 other isoform, or with tags, fused parts or gaps limits assumed): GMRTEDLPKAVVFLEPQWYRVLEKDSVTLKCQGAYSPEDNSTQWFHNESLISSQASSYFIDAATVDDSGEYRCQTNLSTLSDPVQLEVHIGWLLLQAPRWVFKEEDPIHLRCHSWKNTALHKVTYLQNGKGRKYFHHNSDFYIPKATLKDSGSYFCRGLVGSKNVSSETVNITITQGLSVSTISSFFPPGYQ
T12 sequence (P08637 other isoform, or with tags, fused parts or gaps limits assumed): as above

Row | Binder | BINDING AMOUNT (RU) [10] [RU] | BINDING AMOUNT (RU) [11] [RU] | BINDING AMOUNT (RU) [12] [RU] | BINDING AMOUNT (RU) [13] [RU] | BINDING AMOUNT (RU) [14] [RU] | other results
1 | B1 | – | – | – | – | – | KD(IIaR)/KD(IIb) [1]: 17.7; KD of the stronger of FcγRIIaR/FcγRIIaH binding of the variant / that of the parent polypeptide [2]: 0.7; KD(IIaH)/KD(IIb) [3]: 109; KD(IIb) of the parent polypeptide/KD(IIb) of altered polypeptide [4]: 99; Kd [5]: 320 nM; Kd [6]: 31 nM; Kd [7]: 34000 nM; Kd [8]: 550 nM; Kd [9]: 3400 nM
2 | B2 | – | – | – | – | – | KD(IIaR)/KD(IIb) [1]: 13.8; KD of the stronger of FcγRIIaR/FcγRIIaH binding of the variant / that of the parent polypeptide [2]: 0.9; KD(IIaH)/KD(IIb) [3]: 159; KD(IIb) of the parent polypeptide/KD(IIb) of altered polypeptide [4]: 60; Kd [5]: 33 nM; Kd [6]: 52 nM; Kd [7]: 37000 nM; Kd [8]: 710 nM; Kd [9]: 8200 nM
3 | B3 | – | – | – | – | – | KD(IIaR)/KD(IIb) [1]: 16.9; KD of the stronger of FcγRIIaR/FcγRIIaH binding of the variant / that of the parent polypeptide [2]: 0.9; KD(IIaH)/KD(IIb) [3]: 118; KD(IIb) of the parent polypeptide/KD(IIb) of altered polypeptide [4]: 77.4; Kd [5]: 84 nM; Kd [6]: 40 nM; Kd [7]: 31000 nM; Kd [8]: 670 nM; Kd [9]: 4700 nM
4 | B4 | -0.12 | -0.05 | -0.49 | 1.2 | -0.14 | –
5 | B5 | – | – | – | – | – | KD(IIaR)/KD(IIb) [1]: 22.8; KD of the stronger of FcγRIIaR/FcγRIIaH binding of the variant / that of the parent polypeptide [2]: 15.8; KD(IIaH)/KD(IIb) [3]: 69; KD(IIb) of the parent polypeptide/KD(IIb) of altered polypeptide [4]: 5.8; Kd [5]: 18 nM; Kd [6]: 540 nM; Kd [7]: 81000 nM; Kd [8]: 12000 nM; Kd [9]: 37000 nM
6 | B6 | – | – | – | – | – | Kd [15]: 21000 nM
7 | B7 | -0.15 | -0.56 | -0.35 | -1.42 | -0.2 | –
8 | B8 | -1.48 | -0.76 | -1.46 | -2.76 | -0.23 | –
9 | B9 | -1.14 | -1.37 | -2.71 | -2.69 | 0.63 | –
10 | B10 | – | – | – | – | – | relative binding activity [16]: 100; relative binding activity [17]: 100
11 | B11 | -0.23 | -0.22 | -0.9 | 0.09 | 0.63 | –
12 | B12 | -1.59 | -1.12 | -0.31 | -3.63 | 0.26 | –
13 | B13 | -0.33 | -0.34 | -0.12 | -0.42 | -0.44 | –
14 | B14 | -1.17 | -0.62 | -0.47 | -2.4 | 1.46 | –

Reference: patent US20200199241A1 (Chugai, published 2020)
